# Data as given in EP4682166A1 (Guangzhou Enmai Biotechnology Co., Ltd, dated 2026).
# Where a chain is given by its changes, count along the chain named. Names and notes keep the numbering of the source.
# B1: 98G10-H-1 (antibody, V domains shown)
# VH: QEQLEESGGDLVKPEGSLTLTCTASGFSFSASYHICWVRQAPGKGLEWIACIYGGSSGSAYYASWAKGRFTISKTSSTTVTLQMTSLTAADTATYFCARAGYYNYGSAGDIYPSSFKLWGPGTLVTVSS
# VL: DIVMTQTPASVEAAVGGTVTINCQASQSISTALAWYQQKPGQPPKLLIYTASKVASGVPSRFSGSGSGTQFTLTISDLECADAATYYCQNYYYSSSSITFGGGTEVVVK
# notes: also called 98G10 W34H (VH)
# B2: 98G10-H-4 (antibody, V domains shown)
# VH: B1 VH with H34W, Y112S
# VL: B1 VL
# notes: also called 98G10 Y112S (VH)
# B3: 98G10-H-9 (antibody, V domains shown)
# VH: B1 VH with Y112L
# VL: B1 VL
# notes: also called 98G10 W34H, Y112L (VH)
# B4: 98G10-L-3 (antibody, V domains shown)
# VH: B1 VH with H34W
# VL: B1 VL with Y93Q
# notes: also called 98G10 Y93Q (VL)
# B5: 98G10-H-14 (antibody, V domains shown)
# VH: B1 VH with H34D, Y112S
# VL: B1 VL
# notes: also called 98G10 W34D, Y112S (VH)
# B6: 98G10-H-6 (antibody, V domains shown)
# VH: B1 VH with H34W, Y112Q
# VL: B1 VL
# notes: also called 98G10 Y112Q (VH)
# B7: 98G10-H-12 (antibody, V domains shown)
# VH: B1 VH with Y112S
# VL: B1 VL
# notes: also called 98G10 W34H, Y112S (VH)
# B8: 98G10-H-10 (antibody, V domains shown)
# VH: B1 VH with H34T, Y112R
# VL: B1 VL
# notes: also called 98G10 W34T, Y112R (VH)
# B9: 98G10-H-5 (antibody, V domains shown)
# VH: B1 VH with H34W, Y112E
# VL: B1 VL
# notes: also called 98G10 Y112E (VH)
# B10: 98G10-L-2 (antibody, V domains shown)
# VH: B1 VH with H34W
# VL: B1 VL with Y93S
# notes: also called 98G10 Y93S (VL)
# B11: 98G10-H-11 (antibody, V domains shown)
# VH: B1 VH with Y112R
# VL: B1 VL
# notes: also called 98G10 W34H, Y112R (VH)
# B12: 98G10-L-1 (antibody, V domains shown)
# VH: B1 VH with H34W
# VL: B1 VL with Y93R
# notes: also called 98G10 Y93R (VL)
# B13: 98G10-H-7 (antibody, V domains shown)
# VH: B1 VH with H34R, Y112R
# VL: B1 VL
# notes: also called 98G10 W34R, Y112R (VH)
# B14: 98G10-H-13 (antibody, V domains shown)
# VH: B1 VH with H34K, Y112S
# VL: B1 VL
# notes: also called 98G10 W34K, Y112S (VH)
# B15: 98G10-H-3 (antibody, V domains shown)
# VH: B1 VH with H34W, Y112R
# VL: B1 VL
# notes: also called 98G10 Y112R (VH)
# B16: 98G10-H-2 (antibody, V domains shown)
# VH: B1 VH with H34Y
# VL: B1 VL
# notes: also called 98G10 W34Y (VH)
# B17: 98G10-H-8 (antibody, V domains shown)
# VH: B1 VH with H34D, Y112R
# VL: B1 VL
# notes: also called 98G10 W34D, Y112R (VH)
# B18: 240B10-1 mutant D27K (VH) (antibody, V domains shown)
# VH: QSLEESGGRLVTPGGSLTLTCTVSGIKLSSYTMGWVRQAPGKGLEYIGIISGGGRTYYASWAKGRFTISKTSSTTVDLKVTSLTTEDTATYFCARIYTLWGQGTLVTVSS
# VL: QVLTQTLASVSAAVGGTVTINCQSSQSVYNNDYLAWFQQKSGQPPKQLIHSASKLASGVPSRFKGSGSGTQFTLTINDVQCDDAATYYCLGGYDCYSADCNVFGGGTEVVVK
# B19: 240B10-1 mutant G52E (VH) (antibody, V domains shown)
# VH: B18 VH with K27D, G52E
# VL: B18 VL
# B20: 240B10-1 mutant G52Q (VH) (antibody, V domains shown)
# VH: B18 VH with K27D, G52Q
# VL: B18 VL
# B21: 240B10-1 mutant S29Q (VH) (antibody, V domains shown)
# VH: B18 VH with K27D, S29Q
# VL: B18 VL
# B22: 240B10-1 mutant N30T (VL) (antibody, V domains shown)
# VH: B18 VH with K27D
# VL: B18 VL with N30T
# B23: 240B10-1 mutant S30K (VH) (antibody, V domains shown)
# VH: B18 VH with K27D, S30K
# VL: B18 VL
# B24: 240B10-1 mutant N30E (VL) (antibody, V domains shown)
# VH: B18 VH with K27D
# VL: B18 VL with N30E
# B25: 240B10-1 mutant G52R (VH) (antibody, V domains shown)
# VH: B18 VH with K27D, G52R
# VL: B18 VL
# B26: 240B10-1 mutant S29D (VH) (antibody, V domains shown)
# VH: B18 VH with K27D, S29D
# VL: B18 VL
# B27: 240B10-1 mutant S30D (VH) (antibody, V domains shown)
# VH: B18 VH with K27D, S30D
# VL: B18 VL
# B28: 240B10-1 mutant G52K (VH) (antibody, V domains shown)
# VH: B18 VH with K27D, G52K
# VL: B18 VL
# B29: 240B10-1 mutant S30A (VH) (antibody, V domains shown)
# VH: B18 VH with K27D, S30A
# VL: B18 VL
# B30: 240B10-1 mutant D27P (VH) (antibody, V domains shown)
# VH: B18 VH with K27P
# VL: B18 VL
# B31: 240B10-1 mutant S30E (VH) (antibody, V domains shown)
# VH: B18 VH with K27D, S30E
# VL: B18 VL
# B32: 240B10-1 mutant S29E (VH) (antibody, V domains shown)
# VH: B18 VH with K27D, S29E
# VL: B18 VL
# B33: 98G10-1 (mutated antibody of Table 17-7) (antibody, V domains shown)
# VH: B1 VH with H34W
# VL: B1 VL with C80P
# notes: also called 98G10 C80P (VL)
# B34: 98G10-2 (antibody, V domains shown)
# VH: B1 VH with H34W, T81Y
# VL: B1 VL
# notes: also called 98G10 T81Y (VH)
# Molecular target: T1, human NMI (N-myc Interacting protein), recombinant protein (human, UniProt Q13287 1-307, limits assumed)
# T1 construct: Gene ID: 9111; also called hNMI; antigen
# T1 sequence (looked up): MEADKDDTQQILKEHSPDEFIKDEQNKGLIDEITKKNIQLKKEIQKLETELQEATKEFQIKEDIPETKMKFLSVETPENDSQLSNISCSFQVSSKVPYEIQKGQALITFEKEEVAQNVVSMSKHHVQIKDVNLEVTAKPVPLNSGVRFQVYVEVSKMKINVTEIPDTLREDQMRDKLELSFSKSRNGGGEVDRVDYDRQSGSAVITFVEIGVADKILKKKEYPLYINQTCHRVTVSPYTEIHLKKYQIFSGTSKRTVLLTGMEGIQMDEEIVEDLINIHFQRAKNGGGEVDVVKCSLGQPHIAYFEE
# Experiment: ELISA, binding to hNMI
row,Binder,EC50 [mg/L]
1,B1,0.024
2,B2,0.082
3,B3,0.311
4,B4,0.066
5,B5,1.49
6,B6,0.092
7,B7,0.081
8,B8,1.86
9,B9,1.85
10,B10,0.053
11,B11,0.026
12,B12,0.087
13,B13,1.56
14,B14,1.68
15,B15,0.028
16,B16,0.507
17,B17,1.59

# Molecular target: T1, human NMI (N-myc Interacting protein), …
# Experiment: ELISA EC50 against parent 240B10-1
row,Binder,Fold decrease in affinity [fold]
1,B18,> 500
2,B19,> 500
3,B20,> 500
4,B21,> 500
5,B22,> 500
6,B23,> 500
7,B24,> 500
8,B25,> 500
9,B26,> 500
10,B27,> 500
11,B28,> 500
12,B29,> 500
13,B30,> 500
14,B31,> 500
15,B32,> 500

# Molecular target: T1, human NMI (N-myc Interacting protein), …
# Experiment: ELISA EC50 against parent 98G10
row,Binder,Fold decrease in affinity [fold]
1,B1,0.77
2,B2,2.65
3,B3,10
4,B4,2.13
5,B5,48.1
6,B6,2.97
7,B7,2.61
8,B8,60
9,B9,59.7
10,B10,1.71
11,B11,0.84
12,B12,2.81
13,B13,50.4
14,B14,54.1
15,B15,0.9
16,B16,16.4
17,B17,51.3

# Molecular target: T1, human NMI (N-myc Interacting protein), …
# Experiment: ELISA EC50 against parent 98G10
# Remark: another data set of the same source
row,Binder,Fold decrease in affinity [fold]
1,B33,1.05
2,B34,0.29

# Molecular target: T1, human NMI (N-myc Interacting protein), …
# Experiment: ELISA, binding to hNMI
# Remark: another data set of the same source
row,Binder,EC50 [nM]
1,B33,0.173
2,B34,0.0483
